Article PMC7699706, “Responses of DNA Mismatch Repair Proteins to a Stable G-Quadruplex Embedded into a DNA Duplex Structure”

Legend:
rsMutS [1] = molecular target: T1, rsMutS (Rhodobacter sphaeroides strain 2.4.1, UniProt Q3IYI5 1-875); test: EMSA; 1 mM ATP, 5 mM MgCl2; MutS EMSA: 5 nM DNA, 20 mM HEPES-KOH pH 7.9, 5 mM MgCl2, 120 mM KCl, 0.5 mg/mL BSA, 1 mM nucleotide, 37 C 15 min; MutL EMSA: 100 nM DNA, 20 mM HEPES pH 8.0 (10); conditions: protein: recombinant, tags: N-terminal His6 (pET15b), chain copies: 2, blunt
T1 sequence: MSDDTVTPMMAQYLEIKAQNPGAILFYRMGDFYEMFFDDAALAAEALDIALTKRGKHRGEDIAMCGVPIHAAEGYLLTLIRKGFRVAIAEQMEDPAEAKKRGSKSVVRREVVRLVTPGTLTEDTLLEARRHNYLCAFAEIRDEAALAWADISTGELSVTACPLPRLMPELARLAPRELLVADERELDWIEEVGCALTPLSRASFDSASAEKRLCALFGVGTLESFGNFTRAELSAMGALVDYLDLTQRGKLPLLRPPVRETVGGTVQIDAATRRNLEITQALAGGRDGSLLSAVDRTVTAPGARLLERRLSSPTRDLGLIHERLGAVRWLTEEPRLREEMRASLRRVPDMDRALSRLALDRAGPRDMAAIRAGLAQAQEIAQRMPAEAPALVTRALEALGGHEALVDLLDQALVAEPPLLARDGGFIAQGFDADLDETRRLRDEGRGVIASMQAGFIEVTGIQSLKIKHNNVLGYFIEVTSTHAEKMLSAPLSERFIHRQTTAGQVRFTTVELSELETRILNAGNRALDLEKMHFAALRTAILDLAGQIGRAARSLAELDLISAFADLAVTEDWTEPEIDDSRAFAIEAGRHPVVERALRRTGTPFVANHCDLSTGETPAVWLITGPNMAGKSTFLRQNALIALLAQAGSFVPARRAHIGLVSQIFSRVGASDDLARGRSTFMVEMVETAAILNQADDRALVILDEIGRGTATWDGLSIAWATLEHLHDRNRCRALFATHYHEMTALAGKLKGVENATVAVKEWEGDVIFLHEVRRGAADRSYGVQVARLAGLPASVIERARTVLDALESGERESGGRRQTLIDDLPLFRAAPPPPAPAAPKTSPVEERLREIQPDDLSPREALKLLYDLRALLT

ecMutS [2] = molecular target: T2, ecMutS (Escherichia coli, UniProt P23909 1-853); test: as above; conditions: protein: recombinant, chain copies: 2, blunt
T2 sequence: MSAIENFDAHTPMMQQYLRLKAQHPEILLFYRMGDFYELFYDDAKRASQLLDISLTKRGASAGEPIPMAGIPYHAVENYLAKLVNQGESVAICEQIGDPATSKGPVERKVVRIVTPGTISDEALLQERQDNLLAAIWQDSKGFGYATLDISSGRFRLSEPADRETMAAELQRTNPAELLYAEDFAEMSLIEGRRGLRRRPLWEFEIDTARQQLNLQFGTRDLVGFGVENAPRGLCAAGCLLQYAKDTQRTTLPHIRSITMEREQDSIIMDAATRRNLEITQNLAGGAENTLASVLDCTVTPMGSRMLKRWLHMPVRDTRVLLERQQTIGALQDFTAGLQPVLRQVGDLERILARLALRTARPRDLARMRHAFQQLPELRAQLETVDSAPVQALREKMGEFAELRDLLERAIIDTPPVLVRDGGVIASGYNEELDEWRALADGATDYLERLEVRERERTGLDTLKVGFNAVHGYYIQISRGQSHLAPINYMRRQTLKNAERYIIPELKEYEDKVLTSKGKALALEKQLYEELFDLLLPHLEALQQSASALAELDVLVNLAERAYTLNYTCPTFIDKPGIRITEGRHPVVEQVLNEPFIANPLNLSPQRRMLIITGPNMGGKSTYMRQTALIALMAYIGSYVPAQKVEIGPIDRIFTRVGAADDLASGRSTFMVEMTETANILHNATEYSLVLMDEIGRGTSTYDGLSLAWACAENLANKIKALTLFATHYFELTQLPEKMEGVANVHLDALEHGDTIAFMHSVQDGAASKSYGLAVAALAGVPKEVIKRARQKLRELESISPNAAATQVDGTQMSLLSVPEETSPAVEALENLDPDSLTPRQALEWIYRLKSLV

rsMutS [3] = molecular target: T1, rsMutS; test: EMSA; 1 mM ADP, 5 mM MgCl2; MutS EMSA: 5 nM DNA, 20 mM HEPES-KOH pH 7.9, 5 mM MgCl2, 120 mM KCl, 0.5 mg/mL BSA, 1 mM nucleotide, 37 C 15 min; MutL EMSA: 100 nM DNA, 20 mM HEPES pH 8.0 (10); conditions: protein: recombinant, tags: N-terminal His6 (pET15b), chain copies: 2, blunt
ecMutS [4] = molecular target: T2, ecMutS; test: as above; conditions: protein: recombinant, chain copies: 2, blunt
ecMutL [5] = molecular target: T3, ecMutL (Escherichia coli, UniProt P23367 1-615); test: EMSA; no nucleotide, on ice, 100 nM DNA; MutS EMSA: 5 nM DNA, 20 mM HEPES-KOH pH 7.9, 5 mM MgCl2, 120 mM KCl, 0.5 mg/mL BSA, 1 mM nucleotide, 37 C 15 min; MutL EMSA: 100 nM DNA, 20 mM HEPES pH 8.0 (10); conditions: protein: recombinant; chain copies: 2; label: 3'-TAMRA on strand 2 (95G4); blunt; 19-nt insert in strand 2 folded as intramolecular parallel G4 within duplex
T3 sequence (P23367 whole entry): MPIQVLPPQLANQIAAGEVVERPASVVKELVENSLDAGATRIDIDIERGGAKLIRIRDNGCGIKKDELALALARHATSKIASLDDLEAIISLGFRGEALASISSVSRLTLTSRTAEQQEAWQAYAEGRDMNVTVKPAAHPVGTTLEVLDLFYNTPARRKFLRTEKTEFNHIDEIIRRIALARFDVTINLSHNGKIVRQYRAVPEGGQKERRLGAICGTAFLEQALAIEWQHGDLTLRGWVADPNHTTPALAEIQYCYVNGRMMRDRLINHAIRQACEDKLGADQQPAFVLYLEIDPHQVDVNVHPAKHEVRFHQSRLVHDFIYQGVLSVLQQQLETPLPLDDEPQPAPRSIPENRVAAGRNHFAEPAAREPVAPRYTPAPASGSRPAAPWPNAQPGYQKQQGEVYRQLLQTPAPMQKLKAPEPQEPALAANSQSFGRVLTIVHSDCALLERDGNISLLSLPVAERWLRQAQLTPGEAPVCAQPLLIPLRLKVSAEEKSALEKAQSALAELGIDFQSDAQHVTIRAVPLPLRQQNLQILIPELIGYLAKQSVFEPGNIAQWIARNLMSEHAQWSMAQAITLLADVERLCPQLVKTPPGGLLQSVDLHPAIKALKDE

rsMutS [6] = molecular target: T1, rsMutS; test: EMSA; 1 mM ATPgS, 5 mM MgCl2; MutS EMSA: 5 nM DNA, 20 mM HEPES-KOH pH 7.9, 5 mM MgCl2, 120 mM KCl, 0.5 mg/mL BSA, 1 mM nucleotide, 37 C 15 min; MutL EMSA: 100 nM DNA, 20 mM HEPES pH 8.0 (10); conditions: protein: recombinant; tags: N-terminal His6 (pET15b); chain copies: 2; label: 3'-TAMRA on strand 2 (95G4); blunt; 19-nt insert in strand 2 folded as intramolecular parallel G4 within duplex
ecMutS [7] = molecular target: T2, ecMutS; test: as above; conditions: protein: recombinant; chain copies: 2; label: 3'-TAMRA on strand 2 (95G4); blunt; 19-nt insert in strand 2 folded as intramolecular parallel G4 within duplex
ecMutL [8] = molecular target: T3, ecMutL; test: EMSA; no nucleotide, on ice, 100 nM DNA; MutS EMSA: 5 nM DNA, 20 mM HEPES-KOH pH 7.9, 5 mM MgCl2, 120 mM KCl, 0.5 mg/mL BSA, 1 mM nucleotide, 37 C 15 min; MutL EMSA: 100 nM DNA, 20 mM HEPES pH 8.0 (10); conditions: protein: recombinant, chain copies: 2, blunt
[9] = label: 3'-TAMRA on strand 2 (95G4), 19-nt insert in strand 2 folded as intramolecular parallel G4 within duplex
[10] = label: 3'-TAMRA on strand 2 (76T), perfect duplex
[11] = label: 3'-TAMRA on strand 2 (76T), single G/T mismatch
[12] = label: 3'-TAMRA on strand 2 (95(GT)8), 19-nt unstructured (GT)8 loop in strand 2

B1: 76/95G4-A/T (mixed)
DNA 1: TCCTTTCGCGCTTGGATCCTATGAGCGTTACTCGAGCATATGGCTCAGCTGCCAAGCACCAGTGTCAGCGTCCTAT
DNA 2: ATAGGACGCTGACACTGGTGCTTGGCAGCTGAGCCATATTTGGGTGGGTGGGTGGGTTGCTCGAGTAACGCTCATAGGATCCAAGCGCGAAAGGA
modifications: N6-methyl-dA at position 16 of strand 1 (Gm6ATC)
Work on B1 yielded a Kd (rsMutS [1]; [9]) of 23 ± 3 nM, a Kd (ecMutS [2]; [9]) of 32 ± 4 nM and a Kd (rsMutS [3]; [9]) of 23 ± 3 nM. For the same binder, the Kd (ecMutS [4]; [9]) was 23 ± 5 nM, the Kd (ecMutL [5]) was about 200 nM and the Kd (rsMutS [6]) was 46 ± 5 nM. For the same binder, the Kd (ecMutS [7]) was 31 ± 4 nM.

B2: 76/76-A/T (dsDNA)
DNA 1: TCCTTTCGCGCTTGGATCCTATGAGCGTTACTCGAGCATATGGCTCAGCTGCCAAGCACCAGTGTCAGCGTCCTAT
DNA 2: ATAGGACGCTGACACTGGTGCTTGGCAGCTGAGCCATATGCTCGAGTAACGCTCATAGGATCCAAGCGCGAAAGGA
modifications: N6-methyl-dA at position 16 of strand 1 (Gm6ATC)
In the case of B2, the binding signal (ecMutL [8]; [10]) is reported as > 3.7 fold lower binding extent than 76/95G4-A/T at 0.1 uM ecMutL (at least), the Kd (rsMutS [1]; [10]) is reported as 80 ± 30 nM and the Kd (ecMutS [2]; [10]) is reported as 50 ± 10 nM. The Kd (rsMutS [3]; [10]) was 51 ± 4 nM and the Kd (ecMutS [4]; [10]) was 38 ± 4 nM.

B3: 76/76-G/T (dsDNA)
DNA 1: TCCTTTCGCGCTTGGATCCTATGAGCGTTACTCGAGCATATGGCTCAGCTGCCAGGCACCAGTGTCAGCGTCCTAT
DNA 2: ATAGGACGCTGACACTGGTGCTTGGCAGCTGAGCCATATGCTCGAGTAACGCTCATAGGATCCAAGCGCGAAAGGA
modifications: N6-methyl-dA at position 16 of strand 1 (Gm6ATC)
In the case of B3, the binding signal (ecMutL [8]; [11]) is reported as > 3.7 fold lower binding extent than 76/95G4-A/T at 0.1 uM ecMutL (at least), the Kd (rsMutS [1]; [11]) is reported as 60 ± 10 nM and the Kd (ecMutS [2]; [11]) is reported as 38 ± 4 nM. The Kd (rsMutS [3]; [11]) was 27 ± 4 nM and the Kd (ecMutS [4]; [11]) was 35 ± 3 nM.

B4: 76/95(GT)8-A/T (mixed)
DNA 1: TCCTTTCGCGCTTGGATCCTATGAGCGTTACTCGAGCATATGGCTCAGCTGCCAAGCACCAGTGTCAGCGTCCTAT
DNA 2: ATAGGACGCTGACACTGGTGCTTGGCAGCTGAGCCATATTTGTGTGTGTGTGTGTGTTGCTCGAGTAACGCTCATAGGATCCAAGCGCGAAAGGA
modifications: N6-methyl-dA at position 16 of strand 1 (Gm6ATC)
B4 was tested, and the binding signal (ecMutL [8]; [12]) was 1.9 fold lower binding extent than 76/95G4-A/T at 0.1 uM ecMutL, the Kd (rsMutS [1]; [12]) was 43 ± 5 nM and the Kd (ecMutS [2]; [12]) was 44 ± 6 nM. For the same binder, the Kd (rsMutS [3]; [12]) was 31 ± 3 nM and the Kd (ecMutS [4]; [12]) was 32 ± 3 nM.
